Data taken from patent US20260176653A1 (TRUSTEES OF BOSTON UNIVERSITY, published 2026).
Changes are numbered by the printed parent chain. Names may count otherwise. Ends that are not written are not given here.

B1: CP5-46-4D5E peptide (NS3 binding peptide, inserted at the 5' RNA binding loop of ADAR2-DD) (peptide)
peptide: GELDELVYLLDGPGYDPIHCDVVTRGGSHLFNF
B2: Bad(F) peptide (BH3 peptide Bad with its linker, as inserted at the 5' RNA binding loop of ADAR2-DD) (peptide)
peptide: ASGSGTGAPPNLWAAQRYGRELRRMSDEFV
modifications: not fully specified (N-terminus, C-terminus); also: part of an expressed fusion protein
B3: BAD(V) peptide (Bad point mutant F121V, inserted at the 5' RNA binding loop of ADAR2-DD) (peptide)
peptide: B2 peptide with F29V
modifications: not fully specified
B4: BAD(G) peptide (Bad with glycine at the F121 position, inserted at the 5' RNA binding loop of ADAR2-DD) (peptide)
peptide: B2 peptide with F29G
modifications: not fully specified
B5: Bad(L) peptide (Bad point mutant F121L, inserted at the 5' RNA binding loop of ADAR2-DD) (peptide)
peptide: B2 peptide with F29L
modifications: not fully specified (N-terminus, C-terminus); also: part of an expressed fusion protein
B6: ALFA-Bcl dual input iADAR (BAD peptide at the N-terminus of ADAR2-DD(F697Y), ALFA-PE at the 5' RNA binding site, AlfaNb and Bcl-xL in tandem at the C-terminus) (other)
chain: MASNFTQFVLVDNGGTGDVTVAPSNFANGIAEWISSNSRSQAYKVTCSVRQSSAQNRKYTIKVEVPKGAWRSYLNMELTIPIFATNSDCELIVKAMQGLLKDGNPIPSAIAANSGIYGGSGSGAGSGSPAGGGAPGSGGGSTGAPPNLWAAQRYGRELRRMSDEFVDSFKKASQLHLPQVLADAVSRLVLGKFGDLTDNFSSPHARRKVLAGVVMTTGTDVKDAKVISVSTGTKCINGEYMSDRGLALNDCHAEIISRRSLLRFLYTQLELYLNNKDDQKRSIFQKSERGGFRLKENVQFHLYISTSPCGDARIFSPHEPILEEPAASGSGPGRLEEELRRRLSPGTGDRHPNRKARGQLRTKIESGQGTIPVRSNASIQTWDGVLQGERLLTMSCSDKIARWNVVGIQGSLLSIFVEPIYFSSIILGSLYHGDHLSRAMYQRISNIEDLPPLYTLNKPLLSGISNAEARQPGKAPNFSVNWTVGDSAIEVINATTGKDELGRASRLCKHALYCRWMRVHGKVPSHLLRSKITKPNVYHESKLAAKEYQAAKARLFTAFIKAGLGAWVEKPTEQDQYSLTGSGGTAEVQLQESGGGLVQPGGSLRLSCTASGVTISALNAMAMGWYRQAPGERRVMVAAVSERGNAMYRESVQGRFTVTRDFTNKMVSLQMDNLKPEDTAVYYCHVLEDRVDSFHDYWGQGTQVTVSSGAGSGASSNRELVVDFLSYKLSQKGYSWSQFSDVEENRTEAPEGTESEMETPSAINGNPSWHLADSPAVNGATGHSSSLDAREVIPMAAVKQALREAGDEFELRYRRAFSDLTSQLHITPGTAYQSFEQVVNELFRDGVNWGRIVAFFSFGGALCVESVDKEMQVLVSRIAAWMATYLNDHLEPWIQENGGWDTFVELYGNNGSSELIKENMHMKLYMEGTVDNHHFKCTSEGEGKPYEGTQTMRIKVVEGGPLPFAFDILATSFLYGSKTFINHTQGIPDFFKQSFPEGFTWERVTTYEDGGVLTATQDTSLQDGCLIYNVKIRGVNFTSNGPVMQKKTLGWEAFTETLYPADGGLEGRNDMALKLVGGSHLIANIKTTYRSKKPAKNLKMPGVYYVDYRLERIKEANNETYVEQHEVAVARYCDLPSKLGHKLN

Legend:
Assay in all cases: cell-based or functional assay
[1] = molecular target: T1, HCV protease NS3 from genotype 1B (NS4A/NS3, fused to the C-terminus of ADAR2-DD) (Hepatitis C virus genotype 1B, UniProt Q9WMX2 1029-1206)
T1 chain: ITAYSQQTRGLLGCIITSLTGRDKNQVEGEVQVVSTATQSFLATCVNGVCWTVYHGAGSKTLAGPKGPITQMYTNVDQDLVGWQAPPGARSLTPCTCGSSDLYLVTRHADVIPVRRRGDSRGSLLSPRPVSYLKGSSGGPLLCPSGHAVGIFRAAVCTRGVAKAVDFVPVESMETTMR

[2] = molecular target: Bcl-xL (human, fused to the C-terminus of ADAR2-DD) (human, UniProt Q07817 4-198)
[3] = molecular target: EGFP(R96M)-AlfaTag fusion protein (non-fluorescent EGFP carrying the ALFA tag)

| Binder | ratio of mNeonGreen to mCherry, 2 µM grazoprevir against no drug, HEK cells, imaging (fusion SEQ ID NO 169) [1] [fold] | Fold Change (1 µM over 0 µM A-1331852) [2] [fold] | median ratio of mNeonGreen to mCherry, flow cytometry, 0 µM A-1331852 (background) [2] | median ratio of mNeonGreen to mCherry, flow cytometry, 1 µM A-1331852 [2] | median relative fluorescence, flow cytometry: A-1331852 plus EGFP(R96M)-AlfaTag against A-1331852 alone (the effect of adding the antigen) [3] [fold] |
| --- | --- | --- | --- | --- | --- |
| B1 | ~18 | – | – | – | – |
| B2 | – | 37 | 0.026 | 0.962 | – |
| B3 | – | 14.4 | 0.0708 | 1.02 | – |
| B4 | – | 9.65 | 0.1 | 0.968 | – |
| B5 | – | 23.2 | 0.0389 | 0.903 | – |
| B6 | – | – | – | – | ~10 |
